Laboratory results taken from US20230272024A1, “FIBROBLAST GROWTH FACTOR 7 PEPTIDE” (University of Florida Research Foundation, Incorporated, priority 2020, published 2023).
“Also recorded” adds a separate entry of the source.

How the values were obtained:
Type in all cases: in vivo, mice
FGFR2IIIb [1] = target: T1, FGFR2IIIb (Mus musculus, UniProt P21803); assay: pAKT immunostaining of bladder urothelium after subcutaneous ligand; details: for pAKT staining: uninjured mice, full length FGF7 5 mg/kg, FGF7-p 40 mg/kg
T1 construct: from tissue; host or cells: bladder urothelium of FVB/N mice (in vivo)
T1 sequence (P21803 22-707 isoform P21803-2 limits assumed): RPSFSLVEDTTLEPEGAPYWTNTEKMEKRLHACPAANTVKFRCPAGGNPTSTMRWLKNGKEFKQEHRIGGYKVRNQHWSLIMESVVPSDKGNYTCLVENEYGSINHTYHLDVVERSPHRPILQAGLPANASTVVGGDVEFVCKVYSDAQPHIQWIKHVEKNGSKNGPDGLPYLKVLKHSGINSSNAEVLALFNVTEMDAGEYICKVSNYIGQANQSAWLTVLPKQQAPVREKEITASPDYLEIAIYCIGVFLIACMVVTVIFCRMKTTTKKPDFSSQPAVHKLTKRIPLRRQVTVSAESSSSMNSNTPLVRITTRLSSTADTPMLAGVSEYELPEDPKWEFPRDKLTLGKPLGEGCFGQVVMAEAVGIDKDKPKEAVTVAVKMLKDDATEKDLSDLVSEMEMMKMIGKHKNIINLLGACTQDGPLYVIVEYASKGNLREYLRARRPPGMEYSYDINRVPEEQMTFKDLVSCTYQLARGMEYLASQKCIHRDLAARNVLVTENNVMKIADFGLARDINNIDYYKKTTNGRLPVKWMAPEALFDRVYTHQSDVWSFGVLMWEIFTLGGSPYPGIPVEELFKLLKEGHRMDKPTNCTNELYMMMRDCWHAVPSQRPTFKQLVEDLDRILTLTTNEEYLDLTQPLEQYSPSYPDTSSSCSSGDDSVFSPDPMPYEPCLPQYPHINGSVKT
Experimental: (§1) Uninjured mice were treated with 0.2 mL of 10% DMSO, 40 mg/kg FGF7-p, or […] full length FGF7 (n=2 mice per group, mice were about 25 g in weight) administered by subcutaneous injection. At the indicated times (Tables 1 and 2, FIGS. 1 and 2) bladders were harvested and immunostained for pFRS2α and pAKT, markers of urothelial protection. Immunostaining of bladder tissues from each group was repeated. Tables 1, 3, and 4 show the staining pattern for pFRS2α and pAKT over time in mice treated with full length FGF7.
(§2) After FGF7 binds to FGFR2IIIb, pFRSα appears first followed by pAKT. Activation of pAKT correlates with the anti-apoptotic/cytoprotective effects of FGF7 in the bladder urothelium.
(§3) Mice treated with DMSO control, full length FGF7, or FGF7-p were analyzed for activation of FGFR2IIIb and pAKT. Phosphorylated FRS2α and AKT levels were examined by immunostaining. After administration of full length FGF7, initial pFRS2α staining was observed as early as 15 hours later and pAKT staining was observed by 30 hours and peaked at 48 hours (see Tables 1-4 above). 48 hours after administration of 20 mg/kg or 40 mg/kg FGF7-p samples, strong FRS2α staining was observed.
To assess whether pATK expression was also increase in FGF7-p treated mice, bladders were analyzed for pATK staining at 72 hours. To confirm pAKT staining was robust in bladder of FGF7-p of treated mice at 72 hours, additional staining for DMSO and FGF7-p (40 mg/kg) treated animals at 72 hours and staining on old samples from full length FGF7-treated samples (5 mg/kg) at 30 hours, 48 hours and 96 hours (n=2 mice per group) was performed. […] Further, robust pAKT signal was seen throughout the urothelium.

pBAD = assay: phosphorylated BAD (pBAD) immunostaining of urothelium after cyclophosphamide; details: two SC doses of 20 mg/kg at 72 and 48 hours prior to cyclophosphamide, 24 hours after cyclophosphamide
Experimental: (§4) Mice were administered two doses of 20 mg/kg of subcutaneous (SQ) FGF7-p (or 10% DMSO vehicle) at 72 hours and 48 hours prior to intraperitoneal (IP) injection of 150 mg/kg cyclophosphamide (n=3 female mice per group). Mice were sacrificed and bladders were harvested 24 hours after cyclophosphamide injection. The bladders were fixed in 4% paraformaldehyde in phosphate buffered saline and embedded in paraffin. The paraffin embedded bladders were then serially sectioned with a microtome. Hematoxylin and eosin staining was performed on the sections.

bladder urothelium [2] = assay: cyclophosphamide-induced urothelial injury and apoptosis (H&E, TUNEL)
Experimental: FVB/N mice were administered subcutaneous doses 5 mg/kg, 20 mg/kg, 40 mg/kg of FGF7-p, 5 mg/kg of full length FGF7, or 10% DMSO alone (vehicle). After 24 hours, 150 mg/kg of cyclophosphamide was administered to the mice. Mice were the sacrificed and bladder tissues examined for signs of urothelial injury at various times.
as §4

FGFR2IIIb [3] = target: T1, FGFR2IIIb; assay: pFRS2α immunostaining of bladder urothelium after subcutaneous ligand; details: for onset of pFRS2α staining (initial staining observed) after administration: mouse, in vivo
Experimental: as §1, §2, §3

bladder urothelium [4] = assay: radiation-induced bladder urothelial apoptosis (TUNEL); details: two doses 20 mg/kg SQ at 72 and 48 hours prior to 10 Gray radiation, one day later
Experimental: The ability of FGF7p to inhibit radiation injury as assesses. Two doses of FGF7p (20 mg/kg SQ) or 2.5% DMSO/PBS vehicle was administered to anesthetized female mice (N=2) at 72 hours and 48 hours prior to exposing the mice to 10 Gray (1000 rads) radiation. Instead of directly exposing bladders to irradiation, we transurethrally filled bladders with 300 μL of saline and focused the radiation beam over the bladder bulge on the depilated abdominal wall. One day later, we noted many TUNEL+ urothelial apoptotic cells in the vehicle-treated mice (FIG. 4, left panel). […] Thus, similar to KGF, systemic FGF7p inhibited or blocked radiation-induced apoptosis.

pS6 = assay: phosphorylated p70S6 kinase (pS6) immunostaining of urothelium after cyclophosphamide; details: two SC doses of 20 mg/kg at 72 and 48 hours prior to cyclophosphamide; 24 hours after cyclophosphamide; versus DMSO
pAKT = pAKT immunostaining of urothelium after cyclophosphamide; details: two SC doses of 20 mg/kg at 72 and 48 hours prior to cyclophosphamide, 24 hours after cyclophosphamide
[5] = two SC doses of 20 mg/kg at 72 and 48 hours prior to IP 150 mg/kg cyclophosphamide, 24 hours after cyclophosphamide

In the case of “YASAKWTHNGGEMFVALNQ (listed as Homo sapiens) [FGF7-p, chemically synthesized 19 amino acid peptide of FGF7, FGFR2IIIb agonist]”, the pAKT staining (FGFR2IIIb [1]; 24 h after SC dose) is reported as “absent”, the pAKT staining (FGFR2IIIb [1]; 48 h after SC dose) is reported as “absent” and the pAKT staining (FGFR2IIIb [1]; 72 h after SC dose) is reported as “robust”. The pBAD urothelial staining (pBAD) was “strong staining”, the “protection against urothelial apoptosis” value (bladder urothelium [2]; single SC dose 5, 20 or 40 mg/kg 24 hours before 150 mg/kg cyclophosphamide, at 48 hours, versus DMSO alone) was “no signs of protection against urothelial apoptosis” and the “urothelial apoptosis, TUNEL staining” value (bladder urothelium [2]; [5]) was “intact and non-apoptotic urothelial cells”. For the same molecule, the “urothelial injury, hematoxylin and eosin staining” value (bladder urothelium [2]; [5]) was “almost no urothelial injury”, the pFRS2α staining (FGFR2IIIb [3]; 24 h after SC dose, uninjured mice, full length FGF7 5 mg/kg, FGF7-p 40 mg/kg) was “weak and patchy; also recorded: Light/patchy (similar to control)” and the pFRS2α staining (FGFR2IIIb [3]; 48 hours after administration of 5 mg/kg) was “Less, but still significant”. The pFRS2α staining (FGFR2IIIb [3]; 48 hours after administration of 20 mg/kg) was “strong”, the “onset of pFRS2α staining (initial staining observed) after administration” value (FGFR2IIIb [3]) was “delayed” and the “radiation-induced urothelial apoptosis, TUNEL staining” value (bladder urothelium [4]) was “many regions with almost no (middle panel) or minimal urothelial apoptosis”. The pS6 urothelial staining (pS6) was “much stronger staining” and the pAKT urothelial staining (pAKT) was “strong signal throughout the urothelium”.

B1: full length FGF7: Fibroblast growth factor 7 (keratinocyte growth factor), full length ligand for FGFR2 IIIb isoform, used as comparator (protein)
chain: CNDMTPEQMATNVNCSSPERHTRSYDYMEGGDIRVRRLFCRTQWYLRIDKRGKVKGTQEMKNNYNIMEIRTVAVGIVAIKGVESEFYLAMNKEGKLYAKKECNEDCNFKELILENHYNTYASAKWTHNGGEMFVALNQKGIPVRGKKTKKEQKTAHFLPMAIT
With B1 the “pAKT staining first observed after administration” value (FGFR2IIIb [1]; mouse, in vivo) was ≤ 30 hours, the “peak of pAKT staining after administration” value (FGFR2IIIb [1]; mouse, in vivo) was 48 hours and the “onset of pFRS2α staining (initial staining observed) after administration” value (FGFR2IIIb [3]) was ≤ 15 hours.
